The values that follow come from patent US20150051136A1.

Assay [1] concerns the target S100B. The assay can be described thus: BIAcore SPR, sRAGE amine-coupled to CM5 chip, S100B as analyte, steady state model. On the technique in general: In SPR one partner is held on a chip, and binding of the other changes the refractive index at the surface.
Assay [2] addresses HMGB1 (high mobility group box 1). The assay can be described thus: BIAcore SPR, sRAGE amine-coupled to CM5 chip, HMGB1 as analyte, 1:1 Langmuir model.
Assay [3] has the same target. As to the kind of experiment: cell-based or functional assay.
Assay [4] addresses S100B. The assay can be described thus: cell-based or functional assay.
Assay [5] deals with HMGB1 (high mobility group box 1). The assay can be described thus: HMGB1 ELISA (as in Liu et al. 2009). (In general: ELISA stands for enzyme-linked immunosorbent assay.)
Chain of HMGB1 (high mobility group box 1) (P09429 whole entry): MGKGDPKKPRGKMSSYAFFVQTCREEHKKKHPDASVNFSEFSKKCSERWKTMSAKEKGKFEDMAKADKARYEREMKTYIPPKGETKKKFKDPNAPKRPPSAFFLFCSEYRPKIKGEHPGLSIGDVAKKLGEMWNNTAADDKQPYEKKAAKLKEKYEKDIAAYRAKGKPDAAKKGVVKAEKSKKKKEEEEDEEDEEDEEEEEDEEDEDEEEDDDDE

Chain of sRAGE^CHO (human T7-Gly-Ser-RAGE (23-340) polypeptide produced in CHO-CD14 cells) (Q15109 other isoform, or with tags, fused parts or gaps): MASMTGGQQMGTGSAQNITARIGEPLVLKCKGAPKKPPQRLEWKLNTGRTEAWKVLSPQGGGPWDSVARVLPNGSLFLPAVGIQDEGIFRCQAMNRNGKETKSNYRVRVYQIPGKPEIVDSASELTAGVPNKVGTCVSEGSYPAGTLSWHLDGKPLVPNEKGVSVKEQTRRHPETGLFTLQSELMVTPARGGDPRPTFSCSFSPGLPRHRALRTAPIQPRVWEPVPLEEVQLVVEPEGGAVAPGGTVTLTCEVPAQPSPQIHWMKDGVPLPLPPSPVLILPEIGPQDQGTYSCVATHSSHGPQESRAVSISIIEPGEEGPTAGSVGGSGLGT
Chain of sRAGE^CHO(desialylated) (Q15109 other isoform, or with tags, fused parts or gaps): as above
Chain of sRAGE^sf9 (human T7-sRAGE produced in baculovirus-infected sf9 insect cells) (Q15109 23-340, tags or fused parts left off): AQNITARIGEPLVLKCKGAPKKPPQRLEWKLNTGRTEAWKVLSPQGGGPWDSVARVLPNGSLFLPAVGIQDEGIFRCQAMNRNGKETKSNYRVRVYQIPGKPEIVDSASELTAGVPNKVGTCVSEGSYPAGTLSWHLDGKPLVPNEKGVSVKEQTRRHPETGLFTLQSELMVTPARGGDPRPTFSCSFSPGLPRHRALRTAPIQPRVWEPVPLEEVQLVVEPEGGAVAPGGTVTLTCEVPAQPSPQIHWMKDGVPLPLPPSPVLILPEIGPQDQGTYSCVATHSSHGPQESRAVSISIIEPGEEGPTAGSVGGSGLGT
Chain of S100B (D3DSN6 whole entry): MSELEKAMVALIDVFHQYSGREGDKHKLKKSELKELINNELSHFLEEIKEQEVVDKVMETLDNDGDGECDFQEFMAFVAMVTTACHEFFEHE

As for “sRAGE^CHO (human T7-Gly-Ser-RAGE (23-340) polypeptide produced in CHO-CD14 cells) (from UniProt Q15109 23-340) (receptor)”, the Kd was 90.5 nM in assay [1], 13.3 nM in assay [2] and 49.5 nM in assay [5]. The same substance came in with an inhibition of HMGB1-induced NF-κB activity (luciferase reporter, HEK293-RAGE cells; 100 nM ligand, 100 nM sRAGE) in assay [3] of 58.6%. This substance gave an inhibition of s100B-induced NF-κB activity (luciferase reporter, HEK293-RAGE cells; 100 nM ligand, 100 nM sRAGE) in assay [4] of 40.2%.

As to “sRAGE^CHO(N25T/N81T) (from UniProt Q15109 26-340) (receptor)”, the inhibition of HMGB1-induced NF-κB activity (luciferase reporter, HEK293-RAGE cells; 100 nM ligand, 100 nM sRAGE) in assay [3] is 0.3%. In assay [5], the Kd turned out to be 521 nM and the fold of the dissociation constant (Kd) against wild-type sRAGE was 10 fold.

As for “sRAGE^CHO(desialylated) (from UniProt Q15109 23-340) (receptor)”, in assay [1], the Kd stood at 25.3 nM. In addition, the inhibition of HMGB1-induced NF-κB activity (luciferase reporter, HEK293-RAGE cells; 100 nM ligand, 100 nM sRAGE) in assay [3] stood at 25.8%. The inhibition of s100B-induced NF-κB activity (luciferase reporter, HEK293-RAGE cells; 100 nM ligand, 100 nM sRAGE) in assay [4] is 18%.

As to “sRAGE^sf9 (human T7-sRAGE produced in baculovirus-infected sf9 insect cells) (from UniProt Q15109 23-340) (receptor)”, in assay [1], the Kd came out at 32 nM. For the same substance, in assay [3], the inhibition of HMGB1-induced NF-κB activity (luciferase reporter, HEK293-RAGE cells; 100 nM ligand, 100 nM sRAGE) came to 19.7%. Also, the inhibition of s100B-induced NF-κB activity (luciferase reporter, HEK293-RAGE cells; 100 nM ligand, 100 nM sRAGE) in assay [4] is 20.4%.

As a reminder, the Kd is the constant that tells how readily two partners part at equilibrium.
